Values joined by “and” are separate entries in the source; they are usually repeats but may differ in a detail not shown here. Equal values may be shown once.
T1: human PTPRD ECD-His6 (human, UniProt P23468 21-1265)
T1 construct: human PTPRD (receptor-type protein tyrosine phosphatase delta) extracellular domain; No catalogue number printed; also called PTPRδ; source: bought: ACROBiosystems
T1 sequence (looked up): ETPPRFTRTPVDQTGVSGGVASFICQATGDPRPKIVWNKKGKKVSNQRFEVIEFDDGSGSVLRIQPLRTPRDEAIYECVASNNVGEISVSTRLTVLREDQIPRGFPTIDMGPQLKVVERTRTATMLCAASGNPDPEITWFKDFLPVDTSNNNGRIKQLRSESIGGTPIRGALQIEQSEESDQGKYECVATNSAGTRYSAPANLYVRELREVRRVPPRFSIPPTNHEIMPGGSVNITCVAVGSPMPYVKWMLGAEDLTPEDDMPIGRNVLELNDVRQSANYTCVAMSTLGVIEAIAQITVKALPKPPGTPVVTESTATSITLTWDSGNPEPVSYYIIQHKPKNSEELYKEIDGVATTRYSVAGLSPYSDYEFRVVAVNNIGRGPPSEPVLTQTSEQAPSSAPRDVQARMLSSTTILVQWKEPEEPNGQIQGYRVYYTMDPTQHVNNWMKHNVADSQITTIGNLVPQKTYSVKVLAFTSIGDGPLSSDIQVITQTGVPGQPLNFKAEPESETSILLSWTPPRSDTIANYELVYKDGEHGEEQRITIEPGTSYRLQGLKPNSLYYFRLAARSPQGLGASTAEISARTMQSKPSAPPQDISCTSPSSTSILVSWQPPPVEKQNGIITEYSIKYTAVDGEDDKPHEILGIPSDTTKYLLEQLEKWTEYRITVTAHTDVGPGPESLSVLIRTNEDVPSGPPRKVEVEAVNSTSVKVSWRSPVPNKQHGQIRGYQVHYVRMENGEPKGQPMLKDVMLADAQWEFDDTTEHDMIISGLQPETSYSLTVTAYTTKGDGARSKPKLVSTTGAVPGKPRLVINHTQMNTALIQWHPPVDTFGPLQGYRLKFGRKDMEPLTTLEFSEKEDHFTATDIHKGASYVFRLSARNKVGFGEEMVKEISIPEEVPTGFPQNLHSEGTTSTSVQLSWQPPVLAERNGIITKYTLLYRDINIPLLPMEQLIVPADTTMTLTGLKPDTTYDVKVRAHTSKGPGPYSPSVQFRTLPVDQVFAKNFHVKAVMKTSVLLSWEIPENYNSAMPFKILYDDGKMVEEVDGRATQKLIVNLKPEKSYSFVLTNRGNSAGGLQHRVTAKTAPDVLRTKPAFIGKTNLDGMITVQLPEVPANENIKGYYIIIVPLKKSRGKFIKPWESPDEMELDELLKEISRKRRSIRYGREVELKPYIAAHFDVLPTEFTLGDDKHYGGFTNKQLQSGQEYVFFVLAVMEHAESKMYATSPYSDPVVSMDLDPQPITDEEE


Key:
human PTPRD ECD-His6 = molecular target: T1, human PTPRD ECD-His6; assay: quartz crystal microbalance; SLITRK1 ECD-Fc (about 200 fmol) immobilised on the 27 MHz gold resonator through anti-human IgG Fc-HRP; ECD-His6 proteins added in solution; 50 mM Tris-HCl pH 7.6, 15 mM NaCl, 140 mM KCl, 0.5 mM MgCl2, 2 mM CaCl2; 25 ± 1 °C; kon and koff from 1/τ against concentration, KD = koff/kon; each sheet row is one experiment; settings: both partners purified
[1] = molecular target: human Neurofascin ECD-His6 (human, UniProt O94856 25-1217, Mammalian-expressed glycoprotein is likely. C-terminal His6 tag omitted. The limits are not printed. The paper names catalogue 8208-NF-050 as Neurofascin 155, so the chain runs from after the signal p); assay: as above; settings: both partners purified

Row | Kd (human PTPRD ECD-His6) | koff (human PTPRD ECD-His6) | kon (human PTPRD ECD-His6) | Kd [1] | koff [1] | kon [1] | Binder
1 | 110 nM and 202 nM and 144 nM | 0.00348 s⁻¹ and 0.00358 s⁻¹ and 0.00347 s⁻¹ | 31600 M⁻¹ s⁻¹ and 17700 M⁻¹ s⁻¹ and 24100 M⁻¹ s⁻¹ | 18.7 nM and 15.5 nM and 15.7 nM | 0.00278 s⁻¹ and 0.00247 s⁻¹ and 0.00243 s⁻¹ | 154000 M⁻¹ s⁻¹ and 149000 M⁻¹ s⁻¹ and 159000 M⁻¹ s⁻¹ | SLITRK1 ECD-immunoglobulin Fc domain-fusion protein (SLITRK1-WT-Fc) (Fc fusion, human, UniProt Q96PX8 18-616, looked up, signal peptide in the construct; human SLITRK1 extracellular domain, amino acid number 1-616 in NP_443142; Held on the resonator through anti-human IgG Fc; also called SLITRK1 ECD-Fc) NVTGDVCKEKICSCNEIEGDLHVDCEKKGFTSLQRFTAPTSQFYHLFLHGNSLTRLFPNEFANFYNAVSLHMENNGLHEIVPGAFLGLQLVKRLHINNNKIKSFRKQTFLGLDDLEYLQADFNLLRDIDPGAFQDLNKLEVLILNDNLISTLPANVFQYVPITHLDLRGNRLKTLPYEEVLEQIPGIAEILLEDNPWDCTCDLLSLKEWLENIPKNALIGRVVCEAPTRLQGKDLNETTEQDLCPLKNRVDSSLPAPPAQEETFAPGPLPTPFKTNGQEDHATPGSAPNGGTKIPGNWQIKIRPTAAIATGSSRNKPLANSLPCPGGCSCDHIPGSGLKMNCNNRNVSSLADLKPKLSNVQELFLRDNKIHSIRKSHFVDYKNLILLDLGNNNIATVENNTFKNLLDLRWLYMDSNYLDTLSREKFAGLQNLEYLNVEYNAIQLILPGTFNAMPKLRILILNNNLLRSLPVDVFAGVSLSKLSLHNNYFMYLPVAGVLDQLTSIIQIDLHGNPWECSCTIVPFKQWAERLGSEVLMSDLKCETPVNFFRKDFMLLSNDEICPQLYARISPTLTSHSKNSTGLAETGTHSNSYLDTSRVS
2 |  |  |  | 13.3 nM and 16.3 nM and 13.1 nM | 0.00529 s⁻¹ and 0.00613 s⁻¹ and 0.00588 s⁻¹ | 398000 M⁻¹ s⁻¹ and 376000 M⁻¹ s⁻¹ and 451000 M⁻¹ s⁻¹ | SLITRK1-A444S-Fc (Fc fusion, human, UniProt Q96PX8 18-616, looked up, signal peptide in the construct; human SLITRK1 extracellular domain, amino acid number 1-616 in NP_443142, with the patient-derived mutation A444S; A444S was found in patients with BPD, so it occurs in nature; also called SLITRK1 ECD-Fc A444S) NVTGDVCKEKICSCNEIEGDLHVDCEKKGFTSLQRFTAPTSQFYHLFLHGNSLTRLFPNEFANFYNAVSLHMENNGLHEIVPGAFLGLQLVKRLHINNNKIKSFRKQTFLGLDDLEYLQADFNLLRDIDPGAFQDLNKLEVLILNDNLISTLPANVFQYVPITHLDLRGNRLKTLPYEEVLEQIPGIAEILLEDNPWDCTCDLLSLKEWLENIPKNALIGRVVCEAPTRLQGKDLNETTEQDLCPLKNRVDSSLPAPPAQEETFAPGPLPTPFKTNGQEDHATPGSAPNGGTKIPGNWQIKIRPTAAIATGSSRNKPLANSLPCPGGCSCDHIPGSGLKMNCNNRNVSSLADLKPKLSNVQELFLRDNKIHSIRKSHFVDYKNLILLDLGNNNIATVENNTFKNLLDLRWLYMDSNYLDTLSREKFSGLQNLEYLNVEYNAIQLILPGTFNAMPKLRILILNNNLLRSLPVDVFAGVSLSKLSLHNNYFMYLPVAGVLDQLTSIIQIDLHGNPWECSCTIVPFKQWAERLGSEVLMSDLKCETPVNFFRKDFMLLSNDEICPQLYARISPTLTSHSKNSTGLAETGTHSNSYLDTSRVS
3 |  |  |  | 44.8 nM and 64.2 nM and 68.8 nM | 0.00635 s⁻¹ and 0.00732 s⁻¹ and 0.00627 s⁻¹ | 142000 M⁻¹ s⁻¹ and 91200 M⁻¹ s⁻¹ and 114000 M⁻¹ s⁻¹ | SLITRK1-S330A-Fc (Fc fusion, human, UniProt Q96PX8 18-616, looked up, signal peptide in the construct; human SLITRK1 extracellular domain, amino acid number 1-616 in NP_443142, with the patient-derived mutation S330A; S330A was found in patients (SCZ/BPD) and controls, so it occurs in nature; also called SLITRK1 ECD-Fc S330A) NVTGDVCKEKICSCNEIEGDLHVDCEKKGFTSLQRFTAPTSQFYHLFLHGNSLTRLFPNEFANFYNAVSLHMENNGLHEIVPGAFLGLQLVKRLHINNNKIKSFRKQTFLGLDDLEYLQADFNLLRDIDPGAFQDLNKLEVLILNDNLISTLPANVFQYVPITHLDLRGNRLKTLPYEEVLEQIPGIAEILLEDNPWDCTCDLLSLKEWLENIPKNALIGRVVCEAPTRLQGKDLNETTEQDLCPLKNRVDSSLPAPPAQEETFAPGPLPTPFKTNGQEDHATPGSAPNGGTKIPGNWQIKIRPTAAIATGSARNKPLANSLPCPGGCSCDHIPGSGLKMNCNNRNVSSLADLKPKLSNVQELFLRDNKIHSIRKSHFVDYKNLILLDLGNNNIATVENNTFKNLLDLRWLYMDSNYLDTLSREKFAGLQNLEYLNVEYNAIQLILPGTFNAMPKLRILILNNNLLRSLPVDVFAGVSLSKLSLHNNYFMYLPVAGVLDQLTSIIQIDLHGNPWECSCTIVPFKQWAERLGSEVLMSDLKCETPVNFFRKDFMLLSNDEICPQLYARISPTLTSHSKNSTGLAETGTHSNSYLDTSRVS

Reference: PMC9463131, “SLITRK1-mediated noradrenergic projection suppression in the neonatal prefrontal cortex” (Communications Biology, 2022)
